Experimental data from patent US20230190653A1, “METHOD FOR REDUCING OFF-TARGET UPTAKE OR ACCUMULATION OF AGENTS” (The Regents of the University of Colorado, A Body Corporate, priority 2021, published 2023).

What was measured:
[1] = Particle size measurement (Malvern Zetasizer / dynamic light scattering); type: physicochemical; conditions: approximately 150 kD
Method: Lipids were dissolved in chloroform and used to prepare liposomes comprised of sphingosine:cholesterol:DAPC at a mole ratio of 3:2:5 in water as previously described. Briefly, the lipid mixture was dried with nitrogen gas to achieve a thin film that was incubated under vacuum overnight before rehydration with distilled water and sonication to achieve clarity (1-2 min). Lactosylceramide or PEG-ceramide were included in the chloroform-lipid mixture and incorporated into liposomes at a 5% mole ratio as previously described. […] The diameters of these preparations were 237.9±7.5 (lactose) and 273.4±10.4 (PEG) nm as reported previously.
Sphingosine, cholesterol, 1,2-diarachidoyl-sn-glycero-3-phosphocholine (DAPC), and C16-PEG750-Ceramide were purchased from Avanti® Polar Lipids (Alabaster, Ala.) and used to prepare liposomes at a 3:2:4.5:0.5 mole ratio (respectively) as previously described. The liposomes preparations have an average diameter of 135 nm, a PDI of 0.137, and were prepared in 5% dextrose to adjust the tonicity of the injection solution. […] A Malvern Zetasizer Nano-ZS was used for all size measurements.
FITC-dextran was chosen for these studies since it is commonly used to quantify endothelial and epithelial cell barrier permeability.

[2] = Direct injection of IFN-γ into tumors, persistence of cytokine levels; type: in vivo; conditions: preliminary, data not shown
Source text: In contrast to inflammatory cytokines (e.g., TNF-α, IFN-γ, IFN-α, IFN-β) that increase vascular permeability, IFN-λ works specifically on the endothelial/epithelial cells to strengthen barrier integrity and prevent viral invasion. […] Ultimately, the lack of a tightening response in the tumor epithelium allows nanoparticles unaltered access to the tumor upon repeat administration.

CT26 tumor-bearing mice = assay: Doxil accumulation in organs and tumor after IFN-λ pre-treatment; type: in vivo, Balb/c mice
Source text: Tumor Bearing Experiments: Prior to treatment, female immunocompetent Balb/c mice 6-10 weeks old were acquired from Jackson labs (Bar Harbor, Me.) and allowed to acclimate for one week. The mice were then inoculated in the right flank with approximately 1 million CT26 murine colon carcinoma cells (ATCC #CRL-2638). Tumors were allowed to grow for approximately 7 days or until tumor size reached at least 100 mm^3. […] Twenty-four hours after the dextran/Doxil® injections, animals were euthanized, and organs collected for dextran/drug accumulation analysis.
A standard curve of fluorescence for doxorubicin was determined through fluorescence measurements of a serially diluted stock solution of the Doxil® in 90% isopropyl alcohol (IPA) acidified with HCl to a final concentration of 0.075 M. Fluorescence measurements were conducted in a CellStar™ μClear™ 96-Well, Cell Culture-Treated, Flat-Bottom Microplate from Greiner Bio-One™ (Monroe, N.C.) at an excitation of 470 nm and emission of 595 nm using a Molecular Devices (San Jose, Calif.) SpectraMax® M5. […] The equation from the resulting standard curve of fluorescence from each specific organ was used to calculate the total amount of doxorubicin extracted from a corresponding Doxil® treated organ.
Organs collected from animals were immediately flash-frozen in liquid nitrogen and stored at −80° C. until analysis. […] Doxorubicin fluorescence of the extracted solution was then measured, and total doxorubicin accumulation was then calculated using the doxorubicin fluorescence standard curves described above. […]
To assess the effects of IFN-λ pre-treatment on Doxil® accumulation, mice were intravenously injected with either 100 μL of 1×PBS or 1 μg of IFN-λ in 100 μL 1×PBS. […] After an additional 24 hours following Doxil administration, tissues were harvested from experimental mice and the total Doxil accumulation in tissues was determined using the extraction method and standard curves described above. […]

IFNLR1 gene expression = IFNLR1 gene expression by RT-qPCR in primary human lung microvascular endothelial cells; type: cell-based; conditions: 24 hours treatment, 100 ng/mL
Method: (§1) Interferon Lambda Receptor 1 (IFNλR1) mRNA Expression Quantification by Reverse Transcription-Polymerase Chain Reaction (RT-qPCR): Human Lung Microvascular Endothelial Cells (540-05A) (HLMVECs) purchased from Sigma-Aldrich® (Burlington, Mass.) were cultured and left untreated or treated with 100 ng/mL recombinant human IL-29 (R&D Systems® 1598-IL-025) or 100 ng/mL IL-28A/B (R&D Systems® 8417-IL-025/5259-IL-025) for 24 hours. […] After 24 hours, using TaqMan™ Fast Advanced Cells-to-CT™ kit purchased from Invitrogen™ (Waltham, Mass.), cells were collected according to manufacturer recommendations and IFNλR1 expression was quantified. PCR assay ID Hs00417120_ml (ThermoFisher Scientific™, Agawam, M A) was used to quantify IFNλR1 gene expression and PCR assay ID Hs03928985_g1 (ThermoFisher Scientific™, Agawam, M A) was used to quantify reference gene RNA18S5 expression.
(§2) To test the hypothesis that microvascular endothelial cells and liver epithelial cells respond to IFN-λ, real-time quantitative polymerase chain reaction (RT-qPCR) analysis was used to determine Interferon Lambda Receptor 1 (IFN λR1) gene expression in primary Human Lung Microvascular Endothelial Cells and primary Human Liver Epithelial Cells (TABLES 4 and 5). […] However, liver epithelial cells do express IFN λR1 and show an increase in IFN λR1 gene expression in response to IFN-λ and lipoplex treatment.

[3] = system: IFNLR1 (interferon lambda receptor 1) gene expression; assay: IFNLR1 gene expression by RT-qPCR in primary human liver epithelial cells; type: cell-based; conditions: 24 hours treatment
Method: as §1, §2

## FITC-dextran
[1]
  hydrodynamic diameter: approximately 100 nm

## IFN-γ: interferon gamma injected directly into tumors
[2]
  time cytokine levels are maintained in the tumor: at least 4 h

B1: IFN-λ: recombinant mouse IFN-λ2 (R&D Systems, 4635-ML-025/CF) (protein, UniProt Q4VK74 20-193, looked up)
Interferon lambda-2: DPVPRATRLPVEAKDCHIAQFKSLSPKELQAFKKAKDAIEKRLLEKDLRCSSHLFPRAWDLKQLQVQERPKALQAEVALTLKVWENMTDSALATILGQPLHTLSHIHSQLQTCTQLQATAEPRSPSRRLSRWLHRLQEAQSKETPGCLEASVTSNLFRLLTRDLKCVANGDQCV
CT26 tumor-bearing mice; 1 μg IFN-λ iv 24 h before 10 mg/kg Doxil
  Doxil accumulation in liver, spleen vs PBS pretreatment: reduction
CT26 tumor-bearing mice; 1 μg IFN-λ iv 24 h before 10 mg/kg Doxil, tissues 24 h later
  Doxil accumulation in the skin, kidney, lungs, and heart vs PBS pretreatment: significantly reduces
CT26 tumor-bearing mice; not statistically significant
  Doxil accumulation in tumor and plasma vs PBS pretreatment: increase

B2: IL29: recombinant human IL-29 (R&D Systems 1598-IL-025) (protein, UniProt Q8IU54 20-200, looked up)
Interferon lambda-1: GPVPTSKPTTTGKGCHIGRFKSLSPQELASFKKARDALEESLKLKNWSCSSPVFPGNWDLRLLQVRERPVALEAELALTLKVLEAAAGPALEDVLDQPLHTLHHILSQLQACIQPQPTAGPRPRGRLHHWLHRLQEAPKKESAGCLEASVTFNLFRLLTRDLKYVADGNLCLRTSTHPEST
IFNLR1 gene expression
  IFN λR1 expression in endothelial cells: no expression detected
  ΔCt mean: No Amplification
[3]; vs untreated
  ΔΔCt: −1.092
[3]; 100 ng/mL cytokine or 1 μg/mL lipoplexes
  2^-ΔΔCt (Relative fold-change compared to untreated): 2.132
[3]; 100 ng/mL cytokine or 1 μg/mL lipoplexes, reference RNA18S5
  ΔCt mean: 19.476
